Laboratory results published in patent publication US20260242735A1 (UNIVERSIT T BASEL, published 2026).

Legend:
human CD33 A306S = human CD33 A306S (human, UniProt P20138 18-364); test: flow cytometry, HEK293-T, alanine scan;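 note: transiently transfected HEK293-T cells expressing single alanine mutants of human CD33 (alanine residues changed to serine), antibody binding fluorescence minus background, relative to wild type CD33, mean of duplicates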
Experimental: (§1) An alanine scan on human CD33 was performed to the determine the residues on CD33 that are involved in binding to the antibodies investigated. […] Briefly, a mutation library of CD33 was created by high-throughput, site-directed mutagenesis. Each residue was individually mutated to alanine, with alanine codons mutated to serine. The mutant library was arrayed in 384-well microplates and transiently transfected into HEK293-T. Following transfection, cells were incubated with the indicated antibodies (IgG or Fab) at concentrations pre-determined using an independent immunofluorescence titration curve on wild type CD33. […] Binding of each antibody to each mutant clone was determined in duplicates. For each point, background fluorescence was subtracted from the raw data, which were then normalized to antibody reactivity with wild type CD33.
(§2) Critical residues for antibody binding (outlined in dark grey) were residues whose mutations led to a binding of the test Abs of less than 20%. Additional secondary residues (outlined in light grey) were identified that led to a binding of the test Abs of between 20 and 40% as compared to the wild type CD33.

human CD33 P319A = human CD33 P319A (human, UniProt P20138 18-364); test: flow cytometry, HEK293-T, alanine scan;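 note: transiently transfected HEK293-T cells expressing single alanine mutants of human CD33 (alanine residues changed to serine), antibody binding fluorescence minus background, relative to wild type CD33, mean of duplicates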
Experimental: as §1, §2

human CD33 F280A = human CD33 F280A (human, UniProt P20138 18-364); test: flow cytometry, HEK293-T, alanine scan;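 note: transiently transfected HEK293-T cells expressing single alanine mutants of human CD33 (alanine residues changed to serine), antibody binding fluorescence minus background, relative to wild type CD33, mean of duplicates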
Experimental: as §1, §2

human CD33 A289S = human CD33 A289S (human, UniProt P20138 18-364); test: flow cytometry, HEK293-T, alanine scan;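 note: transiently transfected HEK293-T cells expressing single alanine mutants of human CD33 (alanine residues changed to serine), antibody binding fluorescence minus background, relative to wild type CD33, mean of duplicates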
Experimental: as §1, §2

human CD33 K288A = human CD33 K288A (human, UniProt P20138 18-364); test: flow cytometry, HEK293-T, alanine scan
Experimental: as §1, §2

human CD33 H310A = human CD33 H310A (human, UniProt P20138 18-364); test: flow cytometry, HEK293-T, alanine scan
Experimental: as §1, §2

human CD33 A328S = human CD33 A328S (human, UniProt P20138 18-364); test: flow cytometry, HEK293-T, alanine scan
Experimental: as §1, §2

human CD33 S324A = human CD33 S324A (human, UniProt P20138 18-364); test: flow cytometry, HEK293-T, alanine scan
Experimental: as §1, §2

human CD33 I281A = human CD33 I281A (human, UniProt P20138 18-364); test: flow cytometry, HEK293-T, alanine scan
Experimental: as §1, §2

human CD33 H300A = human CD33 H300A (human, UniProt P20138 18-364); test: flow cytometry, HEK293-T, alanine scan
Experimental: as §1, §2

human CD33 K312A = human CD33 K312A (human, UniProt P20138 18-364); test: flow cytometry, HEK293-T, alanine scan
Experimental: as §1, §2

human CD33 T292A = human CD33 T292A (human, UniProt P20138 18-364); test: flow cytometry, HEK293-T, alanine scan
Experimental: as §1, §2

human CD33 L271A = human CD33 L271A (human, UniProt P20138 18-364); test: flow cytometry, HEK293-T, alanine scan
Experimental: as §1, §2

human CD33 A290S = human CD33 A290S (human, UniProt P20138 18-364); test: flow cytometry, HEK293-T, alanine scan
Experimental: as §1, §2

human CD33 S326A = human CD33 S326A (human, UniProt P20138 18-364); test: flow cytometry, HEK293-T, alanine scan
Experimental: as §1, §2

human CD33 A341S = human CD33 A341S (human, UniProt P20138 18-364); test: flow cytometry, HEK293-T, alanine scan
Experimental: as §1, §2

human CD33 G304A = human CD33 G304A (human, UniProt P20138 18-364); test: flow cytometry, HEK293-T, alanine scan
Experimental: as §1, §2

human CD33 A272S = human CD33 A272S (human, UniProt P20138 18-364); test: flow cytometry, HEK293-T, alanine scan
Experimental: as §1, §2

human CD33 R286A = human CD33 R286A (human, UniProt P20138 18-364); test: flow cytometry, HEK293-T, alanine scan
Experimental: as §1, §2

human CD33 C325A = human CD33 C325A (human, UniProt P20138 18-364); test: flow cytometry, HEK293-T, alanine scan
Experimental: as §1, §2

human CD33 T299A = human CD33 T299A (human, UniProt P20138 18-364); test: flow cytometry, HEK293-T, alanine scan
Experimental: as §1, §2

human CD33 K313A = human CD33 K313A (human, UniProt P20138 18-364); test: flow cytometry, HEK293-T, alanine scan
Experimental: as §1, §2

human CD33 M334A = human CD33 M334A (human, UniProt P20138 18-364); test: flow cytometry, HEK293-T, alanine scan
Experimental: as §1, §2

human CD33 I278A = human CD33 I278A (human, UniProt P20138 18-364); test: flow cytometry, HEK293-T, alanine scan
Experimental: as §1, §2

human CD33 R287A = human CD33 R287A (human, UniProt P20138 18-364); test: flow cytometry, HEK293-T, alanine scan
Experimental: as §1, §2

human CD33 P301A = human CD33 P301A (human, UniProt P20138 18-364); test: flow cytometry, HEK293-T, alanine scan
Experimental: as §1, §2

human CD33 L343A = human CD33 L343A (human, UniProt P20138 18-364); test: flow cytometry, HEK293-T, alanine scan
Experimental: as §1, §2

human CD33 Q311A = human CD33 Q311A (human, UniProt P20138 18-364); test: flow cytometry, HEK293-T, alanine scan
Experimental: as §1, §2

human CD33 S131D = human CD33 S131D (human, UniProt P20138 18-364); test: flow cytometry, transfected cells, IgG;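 note: CD33 point mutants transiently expressed in HEK293-T cells, antibody binding read by fluorescence, background subtracted and normalized to wild-type CD33 as 100%, duplicates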
Experimental: as §1
(§3) Antibodies were screened for binding to the human CD33 variants in IgG format. […] For each mutation, background fluorescence was subtracted from the raw data, which were then normalized to antibody reactivity with wild-type CD33.

human CD33 S131H = human CD33 S131H (human, UniProt P20138 18-364); test: flow cytometry, transfected cells, IgG;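 note: CD33 point mutants transiently expressed in HEK293-T cells, antibody binding read by fluorescence, background subtracted and normalized to wild-type CD33 as 100%, duplicates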
Experimental: as §1, §3

human CD33 S131F = human CD33 S131F (human, UniProt P20138 18-364); test: flow cytometry, transfected cells, IgG;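 note: CD33 point mutants transiently expressed in HEK293-T cells, antibody binding read by fluorescence, background subtracted and normalized to wild-type CD33 as 100%, duplicates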
Experimental: as §1, §3

human CD33 K52I = human CD33 K52I (human, UniProt P20138 18-364); test: flow cytometry, transfected cells, IgG;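 note: CD33 point mutants transiently expressed in HEK293-T cells, antibody binding read by fluorescence, background subtracted and normalized to wild-type CD33 as 100%, duplicates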
Experimental: as §1, §3

human CD33 S131G = human CD33 S131G (human, UniProt P20138 18-364); test: flow cytometry, transfected cells, IgG
Experimental: as §1, §3

human CD33 K52E = human CD33 K52E (human, UniProt P20138 18-364); test: flow cytometry, transfected cells, IgG
Experimental: as §1, §3

human CD33 S131M = human CD33 S131M (human, UniProt P20138 18-364); test: flow cytometry, transfected cells, IgG
Experimental: as §1, §3

human CD33 K52D = human CD33 K52D (human, UniProt P20138 18-364); test: flow cytometry, transfected cells, IgG
Experimental: as §1, §3

human CD33 R122T = human CD33 R122T (human, UniProt P20138 18-364); test: flow cytometry, transfected cells, IgG
Experimental: as §1, §3

Sequence of human CD33 S131D (P20138 18-364 S131D limits assumed): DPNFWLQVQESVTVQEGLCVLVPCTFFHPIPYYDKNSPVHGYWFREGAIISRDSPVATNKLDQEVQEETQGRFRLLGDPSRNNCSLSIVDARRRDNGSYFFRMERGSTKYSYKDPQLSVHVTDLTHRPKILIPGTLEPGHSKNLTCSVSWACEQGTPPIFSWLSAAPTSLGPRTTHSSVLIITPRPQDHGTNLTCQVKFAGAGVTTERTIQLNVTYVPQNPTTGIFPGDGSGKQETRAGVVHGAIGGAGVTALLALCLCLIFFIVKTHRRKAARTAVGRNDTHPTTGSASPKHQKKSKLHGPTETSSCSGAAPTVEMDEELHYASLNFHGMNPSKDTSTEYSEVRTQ
Sequence of human CD33 A289S (P20138 18-364 A289S limits assumed): as the sequence (P20138 18-364 S131D limits assumed) above, with D114S, A272S counted along it
Sequence of human CD33 S131M (P20138 18-364 S131M limits assumed): as the sequence (P20138 18-364 S131D limits assumed) above, with D114M counted along it
Sequence of human CD33 K52D (P20138 18-364 K52D limits assumed): as the sequence (P20138 18-364 S131D limits assumed) above, with K35D, D114S counted along it
Sequence of human CD33 F280A (P20138 18-364 F280A limits assumed): as the sequence (P20138 18-364 S131D limits assumed) above, with D114S, F263A counted along it
Sequence of human CD33 I278A (P20138 18-364 I278A limits assumed): as the sequence (P20138 18-364 S131D limits assumed) above, with D114S, I261A counted along it
Sequence of human CD33 H310A (P20138 18-364 H310A limits assumed): as the sequence (P20138 18-364 S131D limits assumed) above, with D114S, H293A counted along it
Sequence of human CD33 C325A (P20138 18-364 C325A limits assumed): as the sequence (P20138 18-364 S131D limits assumed) above, with D114S, C308A counted along it
Sequence of human CD33 M334A (P20138 18-364 M334A limits assumed): as the sequence (P20138 18-364 S131D limits assumed) above, with D114S, M317A counted along it
Sequence of human CD33 H300A (P20138 18-364 H300A limits assumed): as the sequence (P20138 18-364 S131D limits assumed) above, with D114S, H283A counted along it
Sequence of human CD33 K312A (P20138 18-364 K312A limits assumed): as the sequence (P20138 18-364 S131D limits assumed) above, with D114S, K295A counted along it
Sequence of human CD33 K52E (P20138 18-364 K52E limits assumed): as the sequence (P20138 18-364 S131D limits assumed) above, with K35E, D114S counted along it
Sequence of human CD33 A290S (P20138 18-364 A290S limits assumed): as the sequence (P20138 18-364 S131D limits assumed) above, with D114S, A273S counted along it
Sequence of human CD33 Q311A (P20138 18-364 Q311A limits assumed): as the sequence (P20138 18-364 S131D limits assumed) above, with D114S, Q294A counted along it

Binder | Mean % WT Binding (human CD33 A306S) | Mean % WT Binding (human CD33 P319A) | Mean % WT Binding (human CD33 F280A) | Mean % WT Binding (human CD33 A289S) | Mean % WT Binding (human CD33 K288A) | Mean % WT Binding (human CD33 H310A) | Mean % WT Binding (human CD33 A328S) | Mean % WT Binding (human CD33 S324A) | Mean % WT Binding (human CD33 I281A) | Mean % WT Binding (human CD33 H300A) | Mean % WT Binding (human CD33 K312A) | Mean % WT Binding (human CD33 T292A) | Mean % WT Binding (human CD33 L271A) | Mean % WT Binding (human CD33 A290S) | Mean % WT Binding (human CD33 S326A) | Mean % WT Binding (human CD33 A341S) | Mean % WT Binding (human CD33 G304A) | Mean % WT Binding (human CD33 A272S) | Mean % WT Binding (human CD33 R286A) | Mean % WT Binding (human CD33 C325A) | further results
Refmab #5 (antibody, V domains shown, The alanine scan used IgG or Fab) VH: QVQLVQSGAEVKKPGASVKVSCKASGYTFTNYDINWVRQAPGQGLEWIGWIYPGDGSTKYNEKFKAKATLTADTSTSTAYMELRSLRSDDTAVYYCASGYEDAMDYWGQGTTVTVSS VL: DIQMTQSPSSLSASVGDRVTINCKASQDINSYLSWFQQKPGKAPKTLIYRANRLVDGVPSRFSGSGSGQDYTLTISSLQPEDFATYYCLQYDEFPLTFGGGTKVEIK | 88.5 % WT binding | 70 % WT binding | 124 % WT binding | 91.8 % WT binding | 97.9 % WT binding | 91.3 % WT binding | 105 % WT binding | 96.6 % WT binding | 115 % WT binding | 92.8 % WT binding | 94.7 % WT binding | 85.1 % WT binding | 84.9 % WT binding | 118 % WT binding | 107 % WT binding | 113 % WT binding | 79.1 % WT binding | 110 % WT binding | 97.5 % WT binding | 107 % WT binding | Mean % WT Binding (human CD33 T299A): 91.1 % WT binding; Mean % WT Binding (human CD33 K313A): 118 % WT binding; Mean % WT Binding (human CD33 M334A): 99.4 % WT binding; Mean % WT Binding (human CD33 I278A): 100 % WT binding; Mean % WT Binding (human CD33 R287A): 97.1 % WT binding; Mean % WT Binding (human CD33 P301A): 90.1 % WT binding; Mean % WT Binding (human CD33 L343A): 77.8 % WT binding; Mean % WT Binding (human CD33 Q311A): 126 % WT binding
Refmab #6 (antibody, V domains shown, The alanine scan used IgG or Fab) VH: QVQLQQPGAEVVKPGASVKMSCKASGYTFTSYYIHWIKQTPGQGLEWVGVIYPGNDDISYNQKFQGKATLTADKSSTTAYMQLSSLTSEDSAVYYCAREVRLRYFDVWGQGTTVTVSS VL: EIVLTQSPGSLAVSPGERVTMSCKSSQSVFFSSSQKNYLAWYQQIPGQSPRLLIYWASTRESGVPDRFTGSGSGTDFTLTISSVQPEDLAIYYCHQYLSSRTFGQGTKLEIK | 99.2 % WT binding | 85.2 % WT binding | 106 % WT binding | 96 % WT binding | 100 % WT binding | 94.9 % WT binding | 94 % WT binding | 97.1 % WT binding | 104 % WT binding | 101 % WT binding | 94.5 % WT binding | 113 % WT binding | 106 % WT binding | 108 % WT binding | 88.8 % WT binding | 89.6 % WT binding | 100 % WT binding | 90.9 % WT binding | 95.6 % WT binding | 111 % WT binding | Mean % WT Binding (human CD33 T299A): 104 % WT binding; Mean % WT Binding (human CD33 K313A): 102 % WT binding; Mean % WT Binding (human CD33 M334A): 107 % WT binding; Mean % WT Binding (human CD33 I278A): 108 % WT binding; Mean % WT Binding (human CD33 R287A): 71.5 % WT binding; Mean % WT Binding (human CD33 P301A): 105 % WT binding; Mean % WT Binding (human CD33 L343A): 101 % WT binding; Mean % WT Binding (human CD33 Q311A): 88.7 % WT binding
Refmab #5 (antibody, human IgG1, V domains shown) VH: QVQLVQSGAEVKKPGASVKVSCKASGYTFTNYDINWVRQAPGQGLEWIGWIYPGDGSTKYNEKFKAKATLTADTSTSTAYMELRSLRSDDTAVYYCASGYEDAMDYWGQGTTVTVSS VL: DIQMTQSPSSLSASVGDRVTINCKASQDINSYLSWFQQKPGKAPKTLIYRANRLVDGVPSRFSGSGSGQDYTLTISSLQPEDFATYYCLQYDEFPLTFGGGTKVEIK |  |  |  |  |  |  |  |  |  |  |  |  |  |  |  |  |  |  |  |  | Mean % WT Binding (human CD33 S131D): 102%; Mean % WT Binding (human CD33 S131H): 96.8%; Mean % WT Binding (human CD33 S131F): 82.3%; Mean % WT Binding (human CD33 K52I): 1.9%; Mean % WT Binding (human CD33 S131G): 97.1%; Mean % WT Binding (human CD33 K52E): 13.8%; Mean % WT Binding (human CD33 S131M): 83.8%; Mean % WT Binding (human CD33 K52D): 3.2%; Mean % WT Binding (human CD33 R122T): 83.2%
Refmab #6 (antibody, human IgG1, V domains shown) VH: QVQLQQPGAEVVKPGASVKMSCKASGYTFTSYYIHWIKQTPGQGLEWVGVIYPGNDDISYNQKFQGKATLTADKSSTTAYMQLSSLTSEDSAVYYCAREVRLRYFDVWGQGTTVTVSS VL: EIVLTQSPGSLAVSPGERVTMSCKSSQSVFFSSSQKNYLAWYQQIPGQSPRLLIYWASTRESGVPDRFTGSGSGTDFTLTISSVQPEDLAIYYCHQYLSSRTFGQGTKLEIK |  |  |  |  |  |  |  |  |  |  |  |  |  |  |  |  |  |  |  |  | Mean % WT Binding (human CD33 S131D): 88.9%; Mean % WT Binding (human CD33 S131H): 68.5%; Mean % WT Binding (human CD33 S131F): 2.4%; Mean % WT Binding (human CD33 K52I): 71.6%; Mean % WT Binding (human CD33 S131G): 101%; Mean % WT Binding (human CD33 K52E): 121%; Mean % WT Binding (human CD33 S131M): 4.3%; Mean % WT Binding (human CD33 K52D): 126%; Mean % WT Binding (human CD33 R122T): 114%
